To fix the notation:
B1: C24-101FSY (VHH)
VHH: QVQLQESGGGSVEAGGSLRLSCARSGWPYSTYSMNWFRQAPGKEREAVAGISSTMSGIIFAESKAGQFTISQDNAKNTVYLQMNNLKPEDTAIYYCAARRXFSLSSSSDDFDYWGQGTQVTVSS
modifications: FSY at 101 (X of the entry)
notes: also called C24-FSY
B2: C34-FSY (bispecific antibody)
chain: EVQLVESGGGLVQPGGSLTLSCAASRFMISEYSMHWVRQAPGKGLEWVSTINPYGTTDYAESVKGRFTISRDNAKNTLYLQMNSLKPEDTAVYYCDGYGYRGQGTQVTVSSGGGGSGGGGSGGGGSQVQLQESGGGSVEAGGSLRLSCARSGWPYSTYSMNWFRQAPGKEREAVAGISSTMSGIIFAESKAGQFTISQDNAKNTVYLQMNNLKPEDTAIYYCAARRXFSLSSSSDDFDYWGQGTQVTVSSAAAYPYDVPDYGSLPETGGSPSTPPTPSPSTPP
modifications: FSY at the X of the entry (101 of the C24 part)
notes: Biparatopic tandem of two anti-PSMA VHH
B3: C3-103FSY (VHH)
VHH: B1 VHH with X101D, F102Y, S103X
modifications: not fully specified; FSY at 103
notes: plus C-terminal His6; tested as cell lysate
B4: C3-58FSY (VHH)
VHH: B1 VHH with I58X, X101D, F102Y
modifications: not fully specified; FSY at 58
notes: as for B3
B5: C3-62FSY (VHH)
VHH: B1 VHH with E62X, X101D, F102Y
modifications: not fully specified; FSY at 62
notes: as for B3
B6: C3-101FSY (VHH)
VHH: B1 VHH with F102Y
modifications: not fully specified; FSY at 101
notes: plus C-terminal His6
B7: C3-107FSY (VHH)
VHH: B1 VHH with X101D, F102Y, S107X
modifications: not fully specified; FSY at 107
notes: as for B3
B8: C1-26FSY (VHH)
VHH: QVQLQESGGGSVQAGGSLRLSCTAPXYTDSNYYMSWFRQAPGKEREWVAGVNTGRGSTSYADSVKGRFTISQDNAKNTMFLQMNSLKPEDTAIYYCAVAACHFCDSLPKTQDEYILWGQGTQVTVSS
modifications: not fully specified; FSY at 26
notes: plus C-terminal His6
B9: C1-29FSY (VHH)
VHH: B8 VHH with X26G, D29X
modifications: not fully specified; FSY at 29
notes: plus C-terminal His6
B10: C1-108FSY (VHH)
VHH: B8 VHH with X26G, P108X
modifications: not fully specified; FSY at 108
notes: plus C-terminal His6
B11: C1-115FSY (VHH)
VHH: B8 VHH with X26G, I115X
modifications: not fully specified; FSY at 115
notes: plus C-terminal His6
B12: C1-103FSY (VHH)
VHH: B8 VHH with X26G, F103X
modifications: not fully specified; FSY at 103
notes: plus C-terminal His6
B13: C1-30FSY (VHH)
VHH: B8 VHH with X26G, S30X
modifications: not fully specified; FSY at 30
notes: plus C-terminal His6
B14: C1-114FSY (VHH)
VHH: B8 VHH with X26G, Y114X
modifications: not fully specified; FSY at 114
notes: plus C-terminal His6
B15: C1-99FSY (VHH)
VHH: B8 VHH with X26G, A99X
modifications: not fully specified; FSY at 99
notes: plus C-terminal His6
B16: C1-111FSY (VHH)
VHH: B8 VHH with X26G, Q111X
modifications: not fully specified; FSY at 111
notes: plus C-terminal His6
B17: C1-110FSY (VHH)
VHH: B8 VHH with X26G, T110X
modifications: not fully specified; FSY at 110
notes: plus C-terminal His6
B18: C1-105FSY (VHH)
VHH: B8 VHH with X26G, D105X
modifications: not fully specified; FSY at 105
notes: plus C-terminal His6
B19: C35-TYR (bispecific antibody)
chain: QVQLQESGGGSVEAGGSLRLSCARSGWPYSTYSMNWFRQAPGKEREAVAGISSTMSGIIFAESKAGQFTISQDNAKNTVYLQMNNLKPEDTAIYYCAARRYFSLSSSSDDFDYWGQGTQVTVSSGGGGSGGGGSGGGGSQVQLQESGGGSVEAGGSLRLSCARSGWPYSTYSMNWFRQAPGKEREAVAGISSTMSGIIFAESKAGQFTISQDNAKNTVYLQMNNLKPEDTAIYYCAARRYFSLSSSSDDFDYWGQGTQVTVSSAAAYPYDVPDYGSLPETGGSPSTPPTPSPSTPP
notes: Tandem of two copies of the same VHH
B20: C24-101TYR (VHH)
VHH: B1 VHH with X101Y
B21: C34-TYR (bispecific antibody)
chain: B2 chain with X227Y
notes: as for B2
B22: C26-54TYR (VHH)
VHH: EVQLVESGGGLVQPGGSLTLSCAASRFMISEYSMHWVRQAPGKGLEWVSTINPYGTTDYAESVKGRFTISRDNAKNTLYLQMNSLKPEDTAVYYCDGYGYRGQGTQVTVSS
modifications: MC-PEG8-VC-PABC-MMAE on the C-terminal Cys (DAR 1)
B23: C28-101TYR (VHH)
VHH: B1 VHH with X101Y
modifications: MC-PEG8-VC-PABC-MMAE on the C-terminal Cys
B24: C2-58FSY (VHH)
VHH: B22 VHH with Y54A, D58X
modifications: not fully specified; FSY at 58
notes: plus C-terminal His6
B25: C2-56FSY (VHH)
VHH: B22 VHH with Y54A, T56X
modifications: not fully specified; FSY at 56
notes: plus C-terminal His6
B26: C2-50FSY (VHH)
VHH: B22 VHH with T50X, Y54A
modifications: not fully specified; FSY at 50
notes: plus C-terminal His6
B27: C2-100FSY (VHH)
VHH: B22 VHH with Y54A, Y100X
modifications: not fully specified; FSY at 100
notes: plus C-terminal His6
B28: C2-53FSY (VHH)
VHH: B22 VHH with P53X, Y54A
modifications: not fully specified; FSY at 53
notes: plus C-terminal His6

Residue numbers refer to the chain shown, from its start.

Chain of PSMA on PC3pip cells (Q04609 whole entry): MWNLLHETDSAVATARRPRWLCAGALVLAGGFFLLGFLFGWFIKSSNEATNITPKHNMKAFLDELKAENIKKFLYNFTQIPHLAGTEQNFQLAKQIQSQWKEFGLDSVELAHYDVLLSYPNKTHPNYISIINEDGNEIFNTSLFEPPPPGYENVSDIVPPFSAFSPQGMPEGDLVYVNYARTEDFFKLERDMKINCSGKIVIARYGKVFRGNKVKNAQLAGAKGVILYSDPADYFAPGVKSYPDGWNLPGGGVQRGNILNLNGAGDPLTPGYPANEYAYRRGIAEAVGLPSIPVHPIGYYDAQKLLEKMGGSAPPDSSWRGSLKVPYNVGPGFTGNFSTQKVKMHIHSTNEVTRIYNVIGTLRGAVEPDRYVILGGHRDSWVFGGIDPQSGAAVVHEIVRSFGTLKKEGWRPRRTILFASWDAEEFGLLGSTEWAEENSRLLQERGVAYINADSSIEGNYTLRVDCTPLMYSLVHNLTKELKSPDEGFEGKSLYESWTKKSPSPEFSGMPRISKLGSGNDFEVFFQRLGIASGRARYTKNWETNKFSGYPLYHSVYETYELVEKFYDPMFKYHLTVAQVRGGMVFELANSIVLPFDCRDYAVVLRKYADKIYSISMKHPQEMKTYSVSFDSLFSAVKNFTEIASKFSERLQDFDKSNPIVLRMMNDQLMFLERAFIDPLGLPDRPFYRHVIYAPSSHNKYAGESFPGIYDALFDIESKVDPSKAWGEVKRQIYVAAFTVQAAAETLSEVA

For one test, the target named is T1, PSMA on LNCaP cells (human, UniProt Q04609 1-750).
T1 construct: whole, on cells; also called LNCaP (PSMA+)
T1 sequence (Q04609 whole entry): as above
Description: western blot, LNCaP cells, 1000.0 nM, 1 h.
Regarding B1, the “Crosslinked PSMA (Total PSMA %)” value was determined as 41.4%.

For the molecule B2, the “Crosslinked PSMA (Total PSMA %)” value worked out at 70.4%.

The target of another test is T2, PSMA (commercial, Sino Bio cat #15877-H07H) (UniProt Q04609 44-750).
T2 construct: also called receptor
T2 sequence (Q04609 44-750 limits assumed): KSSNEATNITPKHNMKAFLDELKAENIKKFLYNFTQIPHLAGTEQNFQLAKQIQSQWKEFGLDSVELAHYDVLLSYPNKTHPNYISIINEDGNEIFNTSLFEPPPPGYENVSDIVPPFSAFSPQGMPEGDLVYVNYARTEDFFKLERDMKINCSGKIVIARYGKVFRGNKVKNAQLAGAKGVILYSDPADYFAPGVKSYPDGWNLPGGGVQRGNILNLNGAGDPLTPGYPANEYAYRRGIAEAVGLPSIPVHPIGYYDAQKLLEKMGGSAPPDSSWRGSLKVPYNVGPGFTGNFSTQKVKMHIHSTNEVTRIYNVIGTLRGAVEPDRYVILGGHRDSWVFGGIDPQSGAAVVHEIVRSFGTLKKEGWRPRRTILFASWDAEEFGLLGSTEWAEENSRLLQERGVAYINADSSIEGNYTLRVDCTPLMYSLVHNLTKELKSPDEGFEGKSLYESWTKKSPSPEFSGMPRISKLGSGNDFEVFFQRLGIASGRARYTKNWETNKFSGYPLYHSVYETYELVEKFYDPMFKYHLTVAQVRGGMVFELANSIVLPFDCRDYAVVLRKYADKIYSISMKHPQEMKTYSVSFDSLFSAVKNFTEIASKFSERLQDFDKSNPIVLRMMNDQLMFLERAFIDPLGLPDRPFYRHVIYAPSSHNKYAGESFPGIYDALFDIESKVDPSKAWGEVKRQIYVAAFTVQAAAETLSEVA
The experiment in a line: SDS-PAGE, lysate + PSMA, 3 h 37C.
For the molecule B3, the crosslinking efficiency was < 50%.

For the molecule B4, the crosslinking efficiency was > 50%. In the case of B5, the crosslinking efficiency was > 50%. Still for that read-out and setting: the same measure for B6: < 50%; for B7: < 50%.

The next test concerns the target T2, PSMA (commercial, Sino Bio cat …). Description: SDS-PAGE, overnight 37C, ~7:1 sdAb:PSMA.
Consider B8, for which the crosslinking efficiency is < 50%. On the same count and under the same terms, the same measure for B9: > 50%; for B10: < 50%; for B11: < 50%. Same read-out and setting: the same measure for B12: < 50%; for B13: > 50%; for B14: < 50%. The same measure, in the same setting: the same measure for B15: < 50%. As for B16, the crosslinking efficiency was < 50%. For B17, the crosslinking efficiency was < 50%. The same measure, in the same setting: the same measure for B18: < 50%.

For another test, the target named is T1, PSMA on LNCaP cells. The experiment in a line: western blot, LNCaP cells, 100.0 nM, 6 h. (In general: Immunoblotting shows a protein as a band on a membrane.)
Turning to B1, the “Crosslinked PSMA (Total PSMA %)” value was 71%. On the same count and under the same terms, the same measure for B2: 87.1%.

The target of the next test is T1, PSMA on LNCaP cells. Description: flow cytometry on LNCaP cells. Background: A flow cytometer gives signals particle by particle.
The term EC50 denotes the midpoint of the concentration-response curve. A high value points to lower potency in that assay. B19 had an EC50 of 12.3 nM. The same measure, in the same setting: the same measure for B20: > 500 nM; for B21: 2.3 nM.

In the next test the target is T1, PSMA on LNCaP cells. The experiment in a line: western blot, LNCaP cells, 1000.0 nM, 6 h.
Turning to B1, the “Crosslinked PSMA (Total PSMA %)” value turned out to be 75.8%. Still for that read-out and setting: the same measure for B2: 89.9%.

The target in another test is T1, PSMA on LNCaP cells. Description: western blot, LNCaP cells, 0.1 nM, 1 h.
For B1, the “Crosslinked PSMA (Total PSMA %)” value turned out to be 0%. In the case of B2, the “Crosslinked PSMA (Total PSMA %)” value stood at 0%.

The target in the next test is T1, PSMA on LNCaP cells. The experiment in a line: western blot, LNCaP cells, 0.1 nM, 6 h.
With B1, the “Crosslinked PSMA (Total PSMA %)” value was 0%. B2: the “Crosslinked PSMA (Total PSMA %)” value is 3.2%.

The next test addresses PSMA on PC3pip cells (UniProt Q04609 1-750, limits assumed). Description: cell-based or functional assay.
For B22, the “IC50 PC3pip (M), cell viability by CellTiter-Glo after 4 days” value amounted to 3.36e-09 M. Same read-out and setting: the same measure for B23: 8.47e-08 M.

A further test concerns the target T1, PSMA on LNCaP cells. Description: western blot, LNCaP cells, 10.0 nM, 6 h.
Turning to B1, the “Crosslinked PSMA (Total PSMA %)” value was determined as 28.4%. For the molecule B2, the “Crosslinked PSMA (Total PSMA %)” value was found to be 78.7%.

A further test has as its target T1, PSMA on LNCaP cells. The experiment in a line: western blot, LNCaP cells, 10.0 nM, 1 h.
B1: the “Crosslinked PSMA (Total PSMA %)” value was 4.6%. Same read-out and setting: the same measure for B2: 56.9%.

Another test has as its target T1, PSMA on LNCaP cells. Description: western blot, LNCaP cells, 1.0 nM, 6 h.
For B1, the “Crosslinked PSMA (Total PSMA %)” value worked out at 2.4%. Same read-out and setting: the same measure for B2: 21.5%.

The target of a further test is T1, PSMA on LNCaP cells. Description: western blot, LNCaP cells, 100.0 nM, 1 h.
In the case of B1, the “Crosslinked PSMA (Total PSMA %)” value came out at 28.5%. Still for that read-out and setting: the same measure for B2: 63.3%.

Another test deals with T1, PSMA on LNCaP cells. The experiment in a line: western blot, LNCaP cells, 1.0 nM, 1 h.
In the case of B1, the “Crosslinked PSMA (Total PSMA %)” value turned out to be 0%. The same measure, in the same setting: the same measure for B2: 14.8%.

Another test addresses T2, PSMA (commercial, Sino Bio cat …). Description: SDS-PAGE, 37C, ~8:1 sdAb:PSMA.
For the molecule B24, the crosslinking efficiency was > 50%. For B25, the crosslinking efficiency was < 50%. The same measure, in the same setting: the same measure for B26: > 50%. Same read-out and setting: the same measure for B27: < 50%; for B28: > 50%.

The record behind these values is patent publication US20260263646A1 (ENLAZA THERAPEUTICS, published 2026).
